Here are results for 4 compounds from article PMC9646914, “Nicking mechanism underlying the DNA phosphorothioate-sensing antiphage defense by SspE” (Nature Communications, 2022).

In data set [1] the test system is SspE (Streptomyces yokosukanensis DSM 40224). Briefly: EMSA. The note with it: EMSA: 10 mM Tris-HCl pH 8.0 (20 mM in Fig 3 legend), 100 mM NaCl, 0.01 mM EDTA, 5% glycerol, 15 min 30 C; MST: 10 mM Tris-HCl pH 8.0, 100 mM NaCl, 12.5 nM DNA ….
In data set [2] the test system is SspE K40A (Streptomyces yokosukanensis DSM 40224). Briefly: EMSA. The following applies: EMSA: 10 mM Tris-HCl pH 8.0 (20 mM in Fig 3 legend), 100 mM NaCl, 0.01 mM EDTA, 5% glycerol, 15 min 30 C; MST: 10 mM Tris-HCl pH 8.0, 100 mM NaCl, 12.5 nM DNA ….
Data set [3] deals with SspE-CTD (Streptomyces yokosukanensis DSM 40224). Briefly: EMSA. The note with it: EMSA: 10 mM Tris-HCl pH 8.0 (20 mM in Fig 3 legend), 100 mM NaCl, 0.01 mM EDTA, 5% glycerol, 15 min 30 C; MST: 10 mM Tris-HCl pH 8.0, 100 mM NaCl, 12.5 nM DNA ….
The test system of data set [4] is SspE (Streptomyces yokosukanensis DSM 40224). Briefly: MST. The note with it: EMSA: 10 mM Tris-HCl pH 8.0 (20 mM in Fig 3 legend), 100 mM NaCl, 0.01 mM EDTA, 5% glycerol, 15 min 30 C, MST: 10 mM Tris-HCl pH 8.0, 100 mM NaCl, 12.5 nM DNA ….
The target in the next data set is T1, SspE (Streptomyces yokosukanensis, UniProt A0A6I8WFL9).
T1 construct: full length, 771 residues (2,313-bp gene); NTD 1-324 GTPase (DGQQR motif 96-100), CTD 332-771 HNH nickase; expressed in E. coli BL21(DE3), Ni-NTA and Superdex 200
T1 sequence (A0A6I8WFL9 entry or part of it): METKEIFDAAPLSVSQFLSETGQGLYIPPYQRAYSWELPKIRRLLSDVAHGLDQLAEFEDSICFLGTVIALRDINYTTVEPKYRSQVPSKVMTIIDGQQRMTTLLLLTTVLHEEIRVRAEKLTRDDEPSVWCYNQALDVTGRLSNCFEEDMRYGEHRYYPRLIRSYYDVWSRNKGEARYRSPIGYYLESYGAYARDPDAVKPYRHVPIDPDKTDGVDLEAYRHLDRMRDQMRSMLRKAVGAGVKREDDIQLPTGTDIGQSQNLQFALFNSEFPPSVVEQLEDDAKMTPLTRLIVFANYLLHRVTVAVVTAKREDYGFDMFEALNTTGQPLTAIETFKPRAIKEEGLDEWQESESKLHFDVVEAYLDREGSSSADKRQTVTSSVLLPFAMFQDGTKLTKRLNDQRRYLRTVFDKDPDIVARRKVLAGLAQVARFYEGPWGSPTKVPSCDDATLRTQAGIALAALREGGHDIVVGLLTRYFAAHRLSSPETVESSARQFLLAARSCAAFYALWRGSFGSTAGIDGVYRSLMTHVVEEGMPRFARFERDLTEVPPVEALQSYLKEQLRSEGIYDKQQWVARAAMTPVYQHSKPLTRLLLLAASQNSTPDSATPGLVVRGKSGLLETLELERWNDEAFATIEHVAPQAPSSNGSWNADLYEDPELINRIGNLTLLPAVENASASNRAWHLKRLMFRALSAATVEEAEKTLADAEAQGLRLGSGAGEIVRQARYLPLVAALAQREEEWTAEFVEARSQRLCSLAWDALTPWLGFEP
Briefly: malachite green phosphate release (QuantiChrom ATPase/GTPase kit). Type of data set: biochemical. The note with it: 100 uM GTP, 1 uM protein, alone or with 1 uM 40-bp DNA with or without phosphorothioate; Mg acetate 10 mM, pH 7.9, 28 C.

On to linearized pUC19, for which the results for the Kd in data set [1], in data set [2] and in data set [3] were 17.8 µM, 22.2 µM and 3 µM, respectively.

For the compound 2-kb PT DNA (CpsCA at both termini), the Kd in data set [4] (phosphorothioate C12-C13 of primer #7 and C17-C18 of primer #8) came to 8.5 µM. This lies in the single-digit micromolar range.

As to `Nc1nc2c(ncn2[C@@H]2O[C@H](COP(=O)(O)OP(=O)(O)OP(=O)(O)O)[C@@H](O)[C@H]2O)c(=O)[nH]1` [GTP], the GTPase activity result on SspE is “The GTP hydrolysis activity of SspE and its mutants was assayed”.

With 2-kb non-PT DNA (CCA), the Kd in data set [4] was 18.4 µM. That is a double-digit micromolar value.
